Assay results taken from US20260184814A1 (HUMABS BIOMED, published 2026).

B1: FNI9 (antibody, V domains shown)
VH: QVHLVQSGAEVKEPGSSVTVSCKASGGSFNNQAISWVRQAPGQGLEWMGGIFPISGTPTSAQRFQGRVTFTADESTTTVYMDLSSLRSDDTAVYYCARAGSDYFNRDLGWENYYFASWGQGTLVTVSS
VL: EIVMTQSPATLSLSSGERATLSCRASRSVSSNLAWYQQKPGQAPRLLIYDASTRATGFSARFAGSGSGTEFTLTISSLQSEDSAIYYCQQYNNWPPWTFGQGTKVEIK
B2: v9.7 (antibody, V domains shown)
VH: QVHLVQSGAEVKEPGSSVTVSCKASGGSFNNQAISWVRQAPGQGLEWMGGIFPISGTATSAQRFQGRVTITADESTTTVYMDLSSLRSDDTAVYYCARAGSDYFNRDLGWENYYFASWGQGTLVTVSS
VL: EIVMTQSPATLSLSSGERATLSCRASRSVSSNLAWYQQKPGQAPRLLIYDASTRATGFSARFAGSGSGTEFTLTISSLQSEDSAIYYCQQYNIWPPWTFGQGTKVEIK
B3: v7.7 (antibody, V domains shown)
VH: QVHLVQSGAEVKEPGSSVTVSCKASGGSFNNQAISWVRQAPGQGLEWMGGIFPISGTPTSAQRFQGRVTFTADESTTTVYMDLSSLRSDDTAVYYCARAGSDYFNRDLGWEQYYFASWGQGTLVTVSS
VL: EIVMTQSPATLSLSSGERATLSCRASRSVSSNLAWYQQKPGQAPRLLIYDASTRATGFSARFAGSGSGTEFTLTISSLQSEDSAIYYCQQYNIWPPWTFGQGTKVEIK
B4: v6.7 (antibody, V domains shown)
VH: QVHLVQSGAEVKEPGSSVTVSCKASGGSFNNQAISWVRQAPGQGLEWMGGIFPISGTPTSAQRFQGRVTFTADESTTTVYMDLSSLRSDDTAVYYCARAGSEYFNRDLGWENYYFASWGQGTLVTVSS
VL: EIVMTQSPATLSLSSGERATLSCRASRSVSSNLAWYQQKPGQAPRLLIYDASTRATGFSARFAGSGSGTEFTLTISSLQSEDSAIYYCQQYNIWPPWTFGQGTKVEIK
B5: v9.1 (antibody, V domains shown)
VH: QVHLVQSGAEVKEPGSSVTVSCKASGGSFNNQAISWVRQAPGQGLEWMGGIFPISGTATSAQRFQGRVTITADESTTTVYMDLSSLRSDDTAVYYCARAGSDYFNRDLGWENYYFASWGQGTLVTVSS
VL: EIVMTQSPATLSLSSGERATLSCRASRSVSSNLAWYQQKPGQAPRLLIYDASTRATGFSARFAGSGSGTEFTLTISSLQSEDSAIYYCQQYNNWPPWTFGQGTKVEIK
B6: v4.7 (antibody, V domains shown)
VH: QVHLVQSGAEVKEPGSSVTVSCKASGGSFSNQAISWVRQAPGQGLEWMGGIFPISGTPTSAQRFQGRVTFTADESTTTVYMDLSSLRSDDTAVYYCARAGSDYFNRDLGWENYYFASWGQGTLVTVSS
VL: EIVMTQSPATLSLSSGERATLSCRASRSVSSNLAWYQQKPGQAPRLLIYDASTRATGFSARFAGSGSGTEFTLTISSLQSEDSAIYYCQQYNIWPPWTFGQGTKVEIK
B7: v7.1 (antibody, V domains shown)
VH: QVHLVQSGAEVKEPGSSVTVSCKASGGSFNNQAISWVRQAPGQGLEWMGGIFPISGTPTSAQRFQGRVTFTADESTTTVYMDLSSLRSDDTAVYYCARAGSDYFNRDLGWEQYYFASWGQGTLVTVSS
VL: EIVMTQSPATLSLSSGERATLSCRASRSVSSNLAWYQQKPGQAPRLLIYDASTRATGFSARFAGSGSGTEFTLTISSLQSEDSAIYYCQQYNNWPPWTFGQGTKVEIK
B8: FNI9-v8.1 (antibody, V domains shown)
VH: QVHLVQSGAEVKEPGSSVTVSCKASGGTFNNQAISWVRQAPGQGLEWMGGIFPISGTPTSAQRFQGRVTFTADESTTTVYMDLSSLRSDDTAVYYCARAGSDYFNRDLGWENYYFASWGQGTLVTVSS
VL: EIVMTQSPATLSLSSGERATLSCRASRSVSSNLAWYQQKPGQAPRLLIYDASTRATGFSARFAGSGSGTEFTLTISSLQSEDSAIYYCQQYNNWPPWTFGQGTKVEIK
B9: v11.1 (antibody, V domains shown)
VH: QVHLVQSGAEVKEPGSSVTVSCKASGGSFNNQAISWVRQAPGQGLEWMGGIFPISGTATYAQRFQGRVTITADESTTTVYMDLSSLRSDDTAVYYCARAGSDYFNRDLGWENYYFASWGQGTLVTVSS
VL: EIVMTQSPATLSLSSGERATLSCRASRSVSSNLAWYQQKPGQAPRLLIYDASTRATGFSARFAGSGSGTEFTLTISSLQSEDSAIYYCQQYNNWPPWTFGQGTKVEIK
B10: v5.1 (antibody, V domains shown)
VH: QVHLVQSGAEVKEPGSSVTVSCKASGGSFNKQAISWVRQAPGQGLEWMGGIFPISGTPTSAQRFQGRVTFTADESTTTVYMDLSSLRSDDTAVYYCARAGSDYFNRDLGWENYYFASWGQGTLVTVSS
VL: EIVMTQSPATLSLSSGERATLSCRASRSVSSNLAWYQQKPGQAPRLLIYDASTRATGFSARFAGSGSGTEFTLTISSLQSEDSAIYYCQQYNNWPPWTFGQGTKVEIK
B11: v4.1 (antibody, V domains shown)
VH: QVHLVQSGAEVKEPGSSVTVSCKASGGSFSNQAISWVRQAPGQGLEWMGGIFPISGTPTSAQRFQGRVTFTADESTTTVYMDLSSLRSDDTAVYYCARAGSDYFNRDLGWENYYFASWGQGTLVTVSS
VL: EIVMTQSPATLSLSSGERATLSCRASRSVSSNLAWYQQKPGQAPRLLIYDASTRATGFSARFAGSGSGTEFTLTISSLQSEDSAIYYCQQYNNWPPWTFGQGTKVEIK
B12: v12.1 (antibody, V domains shown)
VH: QVHLVQSGAEVKEPGSSVTVSCKASGGSFNNQAISWVRQAPGQGLEWMGGIFPISGTANYAQRFQGRVTITADESTTTVYMDLSSLRSDDTAVYYCARAGSDYFNRDLGWENYYFASWGQGTLVTVSS
VL: EIVMTQSPATLSLSSGERATLSCRASRSVSSNLAWYQQKPGQAPRLLIYDASTRATGFSARFAGSGSGTEFTLTISSLQSEDSAIYYCQQYNNWPPWTFGQGTKVEIK
B13: v8.7 (antibody, V domains shown)
VH: QVHLVQSGAEVKEPGSSVTVSCKASGGTFNNQAISWVRQAPGQGLEWMGGIFPISGTPTSAQRFQGRVTFTADESTTTVYMDLSSLRSDDTAVYYCARAGSDYFNRDLGWENYYFASWGQGTLVTVSS
VL: EIVMTQSPATLSLSSGERATLSCRASRSVSSNLAWYQQKPGQAPRLLIYDASTRATGFSARFAGSGSGTEFTLTISSLQSEDSAIYYCQQYNIWPPWTFGQGTKVEIK
B14: v12.7 (antibody, V domains shown)
VH: QVHLVQSGAEVKEPGSSVTVSCKASGGSFNNQAISWVRQAPGQGLEWMGGIFPISGTANYAQRFQGRVTITADESTTTVYMDLSSLRSDDTAVYYCARAGSDYFNRDLGWENYYFASWGQGTLVTVSS
VL: EIVMTQSPATLSLSSGERATLSCRASRSVSSNLAWYQQKPGQAPRLLIYDASTRATGFSARFAGSGSGTEFTLTISSLQSEDSAIYYCQQYNIWPPWTFGQGTKVEIK
B15: v5.7 (antibody, V domains shown)
VH: QVHLVQSGAEVKEPGSSVTVSCKASGGSFNKQAISWVRQAPGQGLEWMGGIFPISGTPTSAQRFQGRVTFTADESTTTVYMDLSSLRSDDTAVYYCARAGSDYFNRDLGWENYYFASWGQGTLVTVSS
VL: EIVMTQSPATLSLSSGERATLSCRASRSVSSNLAWYQQKPGQAPRLLIYDASTRATGFSARFAGSGSGTEFTLTISSLQSEDSAIYYCQQYNIWPPWTFGQGTKVEIK
B16: v6.1 (antibody, V domains shown)
VH: QVHLVQSGAEVKEPGSSVTVSCKASGGSFNNQAISWVRQAPGQGLEWMGGIFPISGTPTSAQRFQGRVTFTADESTTTVYMDLSSLRSDDTAVYYCARAGSEYFNRDLGWENYYFASWGQGTLVTVSS
VL: EIVMTQSPATLSLSSGERATLSCRASRSVSSNLAWYQQKPGQAPRLLIYDASTRATGFSARFAGSGSGTEFTLTISSLQSEDSAIYYCQQYNNWPPWTFGQGTKVEIK
B17: v11.7 (antibody, V domains shown)
VH: QVHLVQSGAEVKEPGSSVTVSCKASGGSFNNQAISWVRQAPGQGLEWMGGIFPISGTATYAQRFQGRVTITADESTTTVYMDLSSLRSDDTAVYYCARAGSDYFNRDLGWENYYFASWGQGTLVTVSS
VL: EIVMTQSPATLSLSSGERATLSCRASRSVSSNLAWYQQKPGQAPRLLIYDASTRATGFSARFAGSGSGTEFTLTISSLQSEDSAIYYCQQYNIWPPWTFGQGTKVEIK
B18: FNI3 (antibody, V domains shown)
VH: QVQLVQSGAEVKRPGSSVKVSCKASGATFSNNVIAWVRQAPGQGLEWMGGIHPISATATYAQKFQGRVAIAADELTSTAYMELNGLRSEDSAVYYCARAGSDYFNRDLGWENYYFDSWGQGTLVTVSS
VL: EILMTQSPATLSVSPGERATLSCRASQDVSGNLAWYQQRPGQAPRLLIYGASTRATGVPARFTGAGSGTEFTLTISSLQSEDFALYYCQHYNNWPPWTFGQGTKVEIK

Columns and labels:
[1] = target: IBV neuraminidase from B/Lee/10/1940 (Ancestral) (Influenza B virus B/Lee/10/1940, UniProt P03474 1-466); assay: flow cytometry, NA transiently expressed on Expi-CHO cells
[2] = target: T1, N2 neuraminidase from A/Leningrad/134/17/57 (Influenza A virus A/Leningrad/134/17/57, UniProt Q67214 1-469); assay: as above
[3] = target: T1, N2 neuraminidase from …; assay: flow cytometry, NA on cells
[4] = target: N6 neuraminidase from A/swine/Ontario/01911/1/99 (Influenza A virus …); assay: flow cytometry, NA transiently expressed on Expi-CHO cells
[5] = target: T2, N2 neuraminidase from A/Washington/01/2007 (Influenza A virus A/Washington/01/2007); assay: as above
T2 construct: whole, on cells

[6] = target: N8 A/HARBOR SEAL/NEW …/179629/2011 (Influenza A virus); assay: as above
[7] = target: N9 neuraminidase from A/Anhui/1/2013 (Influenza A virus A/Anhui/1/2013 (H7N9)); assay: as above
N1 [8] = assay: ELISA on N1 NA
N1 [9] = assay: Bio-Layer Interferometry (BLI)
N1 [10] = assay: Bio-Layer Interferometry (BLI); printed as kdis

| Binder | binding result [3] | other results |
| --- | --- | --- |
| B1 | – | lowest concentration at which binding was observed (EC50 scale class) [1]: 0.4 µg/mL; lowest concentration at which binding was observed (EC50 scale class) [2]: 0.4 µg/mL |
| B2 | binds | – |
| B3 | binds | – |
| B4 | binds | – |
| B5 | binds | – |
| B6 | binds | – |
| B7 | binds | – |
| B8 | binds | – |
| B9 | binds | – |
| B10 | binds | – |
| B11 | binds | – |
| B12 | binds | – |
| B13 | binds | – |
| B14 | binds | – |
| B15 | binds | – |
| B16 | binds | – |
| B17 | binds | – |
| B18 | – | lowest concentration at which binding was observed (EC50 scale class) [4]: 0.4 µg/mL; lowest concentration at which binding was observed (EC50 scale class) [5]: 10 µg/mL; lowest concentration at which binding was observed (EC50 scale class) [1]: 0.4 µg/mL; lowest concentration at which binding was observed (EC50 scale class) [2]: 0.4 µg/mL; lowest concentration at which binding was observed (EC50 scale class) [6]: 50 µg/mL; lowest concentration at which binding was observed (EC50 scale class) [7]: 0.4 µg/mL; EC50 (read off the curve) (N1 [8]): ~7 ng/mL; Kd (N1 [9]): < 1 pM; kon (N1 [9]): 39500 M⁻¹ s⁻¹; koff (N1 [10]): < 1e-07 s⁻¹ |
